This passage reports interaction score results from publication PMC10397247.

Assay in all cases: two-hybrid library CCNG1;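 note: natural log of median RNA to DNA barcode read ratio; higher means stronger binding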
One assay deals with T1, 4H462-bA.
T1 chain: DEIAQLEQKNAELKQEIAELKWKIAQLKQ

For another assay, the target named is T2, 4H967-bA.
T2 chain: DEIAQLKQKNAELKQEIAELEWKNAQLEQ

A further assay deals with T3, 4H953-bA.
T3 chain: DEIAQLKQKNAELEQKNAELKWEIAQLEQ

A further assay concerns the target T4, 4H906-bN.
T4 chain: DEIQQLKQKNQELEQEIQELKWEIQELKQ

The target in the next assay is T5, O6-bA.
T5 chain: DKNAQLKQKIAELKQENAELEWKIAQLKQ

The target in a further assay is T6, 4H883-bA.
T6 chain: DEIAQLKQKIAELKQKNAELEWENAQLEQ

Another assay deals with T7, 4H797-bA.
T7 chain: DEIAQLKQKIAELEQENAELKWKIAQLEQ

The target in a further assay is T8, 4H72-bA.
T8 chain: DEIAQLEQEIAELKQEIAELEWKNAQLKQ

Another assay concerns the target T9, 4H607-bA.
T9 chain: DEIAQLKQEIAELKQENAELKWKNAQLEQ

The target of another assay is T10, 4H918-bA.
T10 chain: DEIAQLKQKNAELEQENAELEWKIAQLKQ

The next assay deals with T11, 4H568-bA.
T11 chain: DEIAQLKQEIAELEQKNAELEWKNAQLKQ

Another assay addresses T12, 4H687-bA.
T12 chain: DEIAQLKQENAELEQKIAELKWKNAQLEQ

The next assay has as its target T13, 4H570-bA.
T13 chain: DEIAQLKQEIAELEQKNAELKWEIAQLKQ

For the next assay, the target named is T14, 4H370-bN.
T14 chain: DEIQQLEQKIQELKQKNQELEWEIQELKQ

A further assay has as its target T15, 4H883-bN.
T15 chain: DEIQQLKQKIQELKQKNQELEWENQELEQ

Another assay has as its target T16, 4H908-bN.
T16 chain: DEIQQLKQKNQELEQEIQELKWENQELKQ

In a further assay the target is T17, 4H454-bN.
T17 chain: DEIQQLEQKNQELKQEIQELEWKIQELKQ

The target in another assay is T18, 4H717-bN.
T18 chain: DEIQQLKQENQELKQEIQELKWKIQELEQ

In another assay the target is T19, 4H72-bN.
T19 chain: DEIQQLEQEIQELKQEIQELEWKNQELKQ

The target of another assay is T20, 4H607-bN.
T20 chain: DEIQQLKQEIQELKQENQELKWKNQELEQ

The target of another assay is T21, 4H3606-bN.
T21 chain: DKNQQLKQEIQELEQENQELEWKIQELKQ

Another assay addresses T22, 4H967-bN.
T22 chain: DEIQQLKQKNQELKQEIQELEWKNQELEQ

The target in the next assay is T23, 4H3855-bN.
T23 chain: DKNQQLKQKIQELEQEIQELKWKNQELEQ

For a further assay, the target named is T24, 4H3354-bN.
T24 chain: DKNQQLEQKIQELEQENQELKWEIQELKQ

The next assay deals with T25, 4H331-bN.
T25 chain: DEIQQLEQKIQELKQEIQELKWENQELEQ

The next assay deals with T26, 4H918-bN.
T26 chain: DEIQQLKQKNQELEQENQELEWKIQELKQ

In a further assay the target is T27, 4H3782-bN.
T27 chain: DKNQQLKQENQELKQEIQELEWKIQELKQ

In the next assay the target is T28, 4H338-bN.
T28 chain: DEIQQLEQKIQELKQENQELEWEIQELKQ

For the next assay, the target named is T29, 4H3843-bN.
T29 chain: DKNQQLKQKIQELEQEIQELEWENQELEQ

Another assay deals with T30, 4H568-bN.
T30 chain: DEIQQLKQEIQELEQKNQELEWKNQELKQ

Another assay has as its target T31, 4H3427-bN.
T31 chain: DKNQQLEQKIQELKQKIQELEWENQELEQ

In a further assay the target is T32, 4H797-bN.
T32 chain: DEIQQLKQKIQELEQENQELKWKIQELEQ

In the next assay the target is T33, 4H953-bN.
T33 chain: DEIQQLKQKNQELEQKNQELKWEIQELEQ

A further assay concerns the target T34, 4H687-bN.
T34 chain: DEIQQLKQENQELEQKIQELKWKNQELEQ

The target of a further assay is T35, 4H4001-bN.
T35 chain: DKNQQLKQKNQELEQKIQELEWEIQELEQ

The next assay has as its target T36, 4H462-bN.
T36 chain: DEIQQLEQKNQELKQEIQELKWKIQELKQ

The target of a further assay is T37, 4H754-bN.
T37 chain: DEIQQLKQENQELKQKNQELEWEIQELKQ

The target of a further assay is T38, 4H346-bA.
T38 chain: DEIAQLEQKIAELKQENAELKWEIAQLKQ

The target in another assay is T39, 4H754-bA.
T39 chain: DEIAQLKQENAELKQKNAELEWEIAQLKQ

The target in another assay is T40, 4H3010-bA.
T40 chain: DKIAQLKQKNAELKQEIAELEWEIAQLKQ

The next assay addresses T41, 4H3427-bA.
T41 chain: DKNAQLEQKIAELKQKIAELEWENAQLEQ

The next assay deals with T42, 4H3112-bA.
T42 chain: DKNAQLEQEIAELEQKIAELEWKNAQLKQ

The target of a further assay is T43, 4H575-bA.
T43 chain: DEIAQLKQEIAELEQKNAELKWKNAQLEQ

A further assay addresses T44, 4H780-bA.
T44 chain: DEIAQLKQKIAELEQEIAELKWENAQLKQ

A further assay deals with T45, 4H968-bA.
T45 chain: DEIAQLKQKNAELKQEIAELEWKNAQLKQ

The next assay has as its target T46, 4H457-bA.
T46 chain: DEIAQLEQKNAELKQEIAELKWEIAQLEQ

Another assay addresses T47, 4H683-bA.
T47 chain: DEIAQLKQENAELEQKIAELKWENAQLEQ

A further assay has as its target T48, 4H3926-bA.
T48 chain: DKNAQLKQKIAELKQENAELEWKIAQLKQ

The next assay addresses T49, 4H855-bA.
T49 chain: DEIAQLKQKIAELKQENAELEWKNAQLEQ

A further assay has as its target T50, 4H4073-bA.
T50 chain: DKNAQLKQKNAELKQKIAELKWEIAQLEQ

A further assay addresses T51, O4-bS.
T51 chain: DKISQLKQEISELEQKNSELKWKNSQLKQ

A further assay concerns the target T52, O9-bS.
T52 chain: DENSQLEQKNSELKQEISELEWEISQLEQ

The next assay deals with T53, O7-bS.
T53 chain: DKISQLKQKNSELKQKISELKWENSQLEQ

Another assay has as its target T54, O8-bS.
T54 chain: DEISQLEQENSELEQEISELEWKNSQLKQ

The target of a further assay is T55, O6-bS.
T55 chain: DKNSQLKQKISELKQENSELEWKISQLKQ

For another assay, the target named is T56, O5-bS.
T56 chain: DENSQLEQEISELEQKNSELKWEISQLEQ

Read-outs that look alike come from different tables or passages of the source.

For the molecule DEIAQLEQKNAELKQEIAELKWKIAQLKQ [4H462-bA], the interaction score with 4H462-bA is 1.24; with 4H967-bA it was -0.0789; in the assay with 4H953-bA, -0.872; with 4H906-bN it was 0.676; with O6-bA, 1.7; with 4H883-bA, -1.19. Also, the interaction score was -0.251 with 4H797-bA; 0.312 with 4H72-bA; -0.0392 in the assay with 4H607-bA; -1.06 with 4H918-bA; -0.962 in the assay with 4H568-bA; 0.993 with 4H687-bA. In the assay with 4H570-bA, the interaction score is -2.87.

On to DEIQQLEQKIQELKQEIQELKWENQELEQ [4H331-bN], for which the interaction score is 0.508 with 4H370-bN; -0.0918 in the assay with 4H883-bN; -1.35 in the assay with 4H908-bN; -0.999 in the assay with 4H454-bN; -0.661 with 4H717-bN; 0.918 with 4H72-bN. Further, the interaction score with 4H607-bN is -2.2; with 4H3606-bN, -0.132; with 4H967-bN it was -0.995; in the assay with 4H3855-bN, 1.17; with 4H3354-bN, -0.055; with 4H331-bN it was -0.214. For the same molecule, the interaction score with 4H918-bN is -0.476; in the assay with 4H3782-bN, -0.492; with 4H338-bN it was -0.434; with 4H3843-bN, -0.476; with 4H568-bN it was -1.41; with 4H3427-bN, 1.12. Moreover, the interaction score is -0.866 with 4H797-bN; -0.578 with 4H953-bN; -0.624 with 4H687-bN; 0.329 with 4H4001-bN; -0.381 with 4H462-bN; -0.762 with 4H754-bN.

DKNQQLKQEIQELEQENQELEWKIQELKQ [4H3606-bN]: the interaction score in the assay with 4H370-bN was -0.0845; with 4H883-bN, -1.5; with 4H72-bN, -0.312; with 4H607-bN, 0.0432; with 4H3606-bN (mean of both orientations) it was -0.385; in the assay with 4H967-bN it was -1.43. Further, the interaction score with 4H918-bN was -0.149; with 4H3782-bN it was -0.77; in the assay with 4H3843-bN, -0.0433; in the assay with 4H568-bN, 1.07; in the assay with 4H797-bN it was -0.386; with 4H953-bN, -0.614. The interaction score with 4H687-bN is 0.128; with 4H4001-bN, -0.219; with 4H462-bN, -0.288.

With DKIAQLKQKNAELKQEIAELEWEIAQLKQ [4H3010-bA], the interaction score in the assay with 4H346-bA is -0.9; with 4H953-bA, 0.368; in the assay with 4H754-bA, -0.693; with 4H3010-bA, 0.824; with 4H3427-bA, 0.296; with 4H3112-bA, -0.267. In addition, the interaction score in the assay with 4H575-bA is -0.532; with 4H797-bA, -0.928; with 4H780-bA, -1.79; with 4H968-bA, -0.854; with 4H457-bA, 1.48; in the assay with 4H683-bA it was 0.693. The interaction score with 4H918-bA was -0.579; with 4H3926-bA, 1.35; with 4H855-bA, -1.32; with 4H4073-bA, 0.722.

Turning to DKISQLKQEISELEQKNSELKWKNSQLKQ [O4-bS], the interaction score with O4-bS was -1.26; with O9-bS, 0.414; in the assay with O7-bS it was -0.221; in the assay with O8-bS it was -2.55; in the assay with O6-bS it was 0.143; with O5-bS it was -0.823.
